Target: mS105 (Chlamydomonas reinhardtii (endogenous in strain CC-4351))
Assay: cryo-EM structure; single-particle reconstruction of the native small subunit (SSU) of the C. reinhardtii mitoribosome isolated from purified mitochondria; Monosome buffer; 5.49 A, focused refinement 4.19 A (body) and 4.47 A (head)

stoichiometry N: 3
Substance: mS105 (natural protein)
